In PMC10520331, “Novel exported fusion enzymes with chorismate mutase and cyclohexadienyl dehydratase activity: Shikimate pathway enzymes teamed up in no man's land” (The Journal of Biological Chemistry, 2023):
Residue numbers refer to the chain shown, from its start. Numbers in names are those of the source.

Key:
[1] = tested on: T1, O=C(O)C(=O)CC1(C(=O)O)C=CC(O)C=C1; experiment: discontinuous CDT assay, phenylpyruvate enolate A320; format: biochemical, Steroidobacter cummioxidans; settings: PBS pH 7.5, 30 °C, CDT site
T1 construct: fusion enzyme, CM N-terminal to CDT; without signal peptide, C-terminal His-tag; E. coli KA29; monomer
Text: discontinuous CDT assay, phenylpyruvate enolate A320 on ∗ScCMCDT

[2] = tested on: T2, C=C(O[C@@H]1C=C(C(=O)O)C=C[C@H]1O)C(=O)O; experiment: discontinuous CM assay, phenylpyruvate enolate A320; format: biochemical, Steroidobacter cummioxidans; settings: PBS pH 7.5, 30 °C, CM site
T2 construct: fusion enzyme, CM N-terminal to CDT; without signal peptide, C-terminal His-tag; E. coli KA29; monomer
Text: discontinuous CM assay, phenylpyruvate enolate A320 on ∗ScCMCDT

[3] = tested on: C=C(O[C@@H]1C=C(C(=O)O)C=C[C@H]1O)C(=O)O; experiment: purified protein; settings: PBS pH 7.5, 30 °C, CM site, lowest substrate 2.5 μM (Km near or below this is less reliable)
[4] = tested on: O=C(O)C(=O)CC1(C(=O)O)C=CC(O)C=C1; experiment: purified protein; settings: PBS pH 7.5, 30 °C, CDT site
[5] = substrate: C=C(O[C@@H]1C=C(C(=O)O)C=C[C@H]1O)C(=O)O; experiment: discontinuous CM assay, phenylpyruvate enolate A320; format: biochemical, Shewanella baltica; settings: PBS pH 7.5, 30 °C, CM site, lowest substrate 2.5 μM (Km near or below this is less reliable)
Text: discontinuous CM assay, phenylpyruvate enolate A320 on ∗SbCMCDT

[6] = substrate: O=C(O)C(=O)CC1(C(=O)O)C=CC(O)C=C1; experiment: discontinuous CDT assay, phenylpyruvate enolate A320; format: biochemical, Shewanella baltica; settings: PBS pH 7.5, 30 °C, CDT site, lowest substrate 2.5 μM (Km near or below this is less reliable)
Text: discontinuous CDT assay, phenylpyruvate enolate A320 on ∗SbCMCDT

[7] = substrate: C=C(O[C@@H]1C=C(C(=O)O)C=C[C@H]1O)C(=O)O; experiment: discontinuous CM assay, phenylpyruvate enolate A320; format: biochemical, Janthinobacterium sp. HH01; settings: PBS pH 7.5, 30 °C, CM site, lowest substrate 2.5 μM (Km near or below this is less reliable)
Text: discontinuous CM assay, phenylpyruvate enolate A320 on ∗JbCDTCM

[8] = substrate: O=C(O)C(=O)CC1(C(=O)O)C=CC(O)C=C1; experiment: discontinuous CDT assay, phenylpyruvate enolate A320; format: biochemical, Janthinobacterium sp. HH01; settings: PBS pH 7.5, 30 °C, CDT site
Text: discontinuous CDT assay, phenylpyruvate enolate A320 on ∗JbCDTCM

[9] = substrate: C=C(O[C@@H]1C=C(C(=O)O)C=C[C@H]1O)C(=O)O; experiment: discontinuous CM assay, phenylpyruvate enolate A320; format: biochemical, Janthinobacterium sp. HH01; settings: PBS pH 7.5, 30 °C, lowest substrate 2.5 μM (Km near or below this is less reliable)
Text: discontinuous CM assay, phenylpyruvate enolate […] on ∗JbCM

[10] = CM-site knock-out, lowest substrate 2.5 μM (Km near or below this is less reliable)

∗ScCMCDT (Steroidobacter cummioxidans)
Km [1]: 16.6 ± 2.5 µM | kcat [1]: 32.0 ± 8.4 s⁻¹ | kcat/Km [1]: 1.9e+06 ± 200000 M⁻¹ s⁻¹ | Km [2]: 6.3 ± 3.9 µM | kcat [2]: 6.8 ± 0.7 s⁻¹

∗MpCDTCM (Massilia phosphatilytica)
Km [3]: 3.2 ± 0.0 µM | kcat [3]: 26.3 ± 1.4 s⁻¹ | kcat/Km [3]: 8.3e+06 ± 400000 M⁻¹ s⁻¹ | Km [4]: 18.1 ± 1.7 µM | kcat [4]: 41.8 ± 3.5 s⁻¹ | kcat/Km [4]: 2.3e+06 M⁻¹ s⁻¹

∗DsCDTCM (Duganella sacchari)
Km [3]: 3.0 ± 0.8 µM | kcat [3]: 19.5 ± 0.2 s⁻¹ | kcat/Km [3]: 6.8e+06 ± 1.9e+06 M⁻¹ s⁻¹ | Km [4]: 14.6 ± 3.1 µM | kcat [4]: 24.9 ± 2.0 s⁻¹ | kcat/Km [4]: 1.8e+06 ± 500000 M⁻¹ s⁻¹

B1: ∗SbCMCDT (Shewanella baltica OS155) (protein)
chain: DTDENAELYANMNTRLSYMQQVALYKWQHQLPIEDLAREKIVLAQSVTAAESLGITSVAITDFFQVQIELAKKIQRQYHQQWREHGLPQTLQTKQNTKLSLDKIRPALTTLGQTIIEQIAEHQDQHDFSVFNLAIDTPLVSIEDKAVLFRSLSLIKPKVYLSTLDKIIAEKILYVGTTGDYEPFSYFEAGQIKGIDIDLANRLADSLGAQAVFLPTSWSNLITDLSSERFDIMMSGISKQLFRQRVGLQSDIYLEDGKTPISLCAKKERYDSLAKIDKPDTRMIVNKGGTNQRFVDANIKQAKITVHSSNVTIFQELIANRADVMITDRVEVQLQTKKHTELCSTMPNNLNYSAKAFLMGRDPIWKEYVDAWLELSIKDGSVSNIFNHYI
notes: fusion enzyme, CM N-terminal to CDT; without signal peptide, C-terminal His-tag; E. coli KA29
Km [5]: 3.2 ± 2.7 µM | kcat [5]: 6.8 ± 0.1 s⁻¹ | Km [6]: 3.6 ± 1.1 µM | kcat [6]: 12.2 ± 2.8 s⁻¹ | kcat/Km [6]: 3.5e+06 ± 300000 M⁻¹ s⁻¹

B2: ∗JbCDTCM (Janthinobacterium sp. HH01) (protein)
chain: DHRLDDITARGVLRVGTTGDYKPFSSRAGNDFVGLDIELAADLARTLGVPVQIVPTSWPTLMKDFGDGKFDIALGGVSITPERQKQGLFSVSYLRDGKTPITRCENSARFQTLAQIDQPGVRLVVNPGGTNERFARSQAPNAQLTVYPDNVTIFDQIVTGAADLMITDAIETRLQQRLRPQLCAVHPDTPFDFAEKAILLPRDVAFKAVVDKWLQQRIASGAVQRSVDRWLDFPWGLEPLRLAIDQRLLLAQAVARAKWNVQAPIEDLGREAQVIQAAVKEGAALGLPKVWIETVFRAQIEASKTVQRELFAQWSAQQAGKFDDAPDLAKTIRPELDRLTTQLLRSMASNQTVLNDEARKADVARAMRALEARALSPQAATQALAPFF
notes: fusion enzyme, CDT N-terminal to CM; without signal peptide, C-terminal His-tag; E. coli KA29; monomer
Km [7]: 3.0 ± 0.1 µM | kcat [7]: 17.1 ± 0.9 s⁻¹ | kcat/Km [7]: 5.7e+06 ± 100000 M⁻¹ s⁻¹ | Km [8]: 7.3 ± 2.0 µM | kcat [8]: 13.0 ± 1.3 s⁻¹ | kcat/Km [8]: 1.8e+06 ± 300000 M⁻¹ s⁻¹

B3: ∗JbCDTCM (Janthinobacterium sp. HH01; K287A) (protein)
chain: B2 chain with K258A
notes: as for B2
Km [8, 10]: 4.2 ± 0.4 µM | kcat [8, 10]: 13.9 ± 0.3 s⁻¹ | kcat/Km [8, 10]: 3.3e+06 ± 200000 M⁻¹ s⁻¹

B4: ∗JbCDTCM (Janthinobacterium sp. HH01; E200Q) (protein)
chain: B2 chain with E171Q
notes: as for B2
Km ([7]; CDT-site knock-out): 2.4 ± 1.3 µM | kcat ([7]; CDT-site knock-out): 15.6 ± 0.4 s⁻¹ | kcat/Km ([7]; CDT-site knock-out): 7.9e+06 ± 4.5e+06 M⁻¹ s⁻¹

B5: ∗JbCM (Janthinobacterium sp. HH01) (protein)
chain: GLEPLRLAIDQRLLLAQAVARAKWNVQAPIEDLGREAQVIQAAVKEGAALGLPKVWIETVFRAQIEASKTVQRELFAQWSAQQAGKFDDAPDLAKTIRPELDRLTTQLLRSMASNQTVLNDEARKADVARAMRALEARALSPQAATQALAPFF
notes: split-off CM domain of JbCDTCM, starts at Gly238; C-terminal His-tag; E. coli KA29
Km [9]: 2.2 ± 0.3 µM | kcat [9]: 16.4 ± 1.5 s⁻¹ | kcat/Km [9]: 7.6e+06 ± 1.7e+06 M⁻¹ s⁻¹
